Source: patent US20260166131A1, “METHOD FOR PROMOTING PATHOLOGICAL TDP-43 PROTEIN DEGRADATION, AND DRUG” (TALENGEN INTERNATIONAL LIMITED, priority 2022, published 2026)

Columns and labels:
TDP-43 [1] = target: T1, TDP-43 (Mus musculus, UniProt Q921F2); assay: TDP-43 in nuclei of renal cells of SOD1-G93A mice (Western blot); type: in vivo; set-up: from tissue; host or cells: mouse spinal cord, gluteal muscle, brain, kidney cell nuclei; details: 50 mg/kg tail vein every day, 7 days, vs vehicle group, P<0.05
T1 sequence (Q921F2 whole entry): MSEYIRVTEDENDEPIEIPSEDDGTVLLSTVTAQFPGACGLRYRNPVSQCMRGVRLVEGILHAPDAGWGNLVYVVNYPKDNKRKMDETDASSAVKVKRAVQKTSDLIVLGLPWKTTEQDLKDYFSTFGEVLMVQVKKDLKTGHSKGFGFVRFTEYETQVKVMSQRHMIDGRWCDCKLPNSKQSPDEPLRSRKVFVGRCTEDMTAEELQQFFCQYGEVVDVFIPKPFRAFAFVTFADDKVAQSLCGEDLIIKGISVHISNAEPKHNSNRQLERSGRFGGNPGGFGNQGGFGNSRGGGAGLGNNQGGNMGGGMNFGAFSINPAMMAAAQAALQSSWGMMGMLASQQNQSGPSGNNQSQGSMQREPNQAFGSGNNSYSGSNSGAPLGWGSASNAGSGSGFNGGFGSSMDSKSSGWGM
Method: SOD1-G93A mice (Jackson Laboratory, Stock Number: 004435) and C57BL/6J mice aged 9-10 weeks were selected. SOD1-G93A mice were randomly divided into two groups, vehicle group and plasminogen group, and C57BL/6J mice were used as normal control group, with 3 mice in each group. […] No treatment was administered to the normal control mice. The mice were killed after 7 days, and kidney tissues were obtained. The sampled kidney tissue was placed in pre-cooled RPMI-1640 (Sigma-Aldrich) culture medium on ice. After rinsing with PBS, the kidney tissue was cut into small pieces and then incubated with 0.25% trypsin for digestion at 37° C. for 10 min, shaking every 2 min. Digestion was terminated by adding DMEM medium containing 10% fetal newborn calf serum. After centrifugation (1500 rpm, 5 minutes), the supernatant was removed to obtain a single cell pellet. […] The precipitate is the cell nucleus. […] The extracted nuclear protein was tested by western blot for TDP-43.

TDP-43 [2] = target: T2, TDP-43 (Homo sapiens, UniProt Q13148); assay: Cleavage of TDP-43 protein in brain homogenate of ALS model (SOD1-G93A) mice (Western blot); type: biochemical; details: SOD1-G93A mouse brain homogenate + recombinant TDP-43, 37° C. 3 h, vs vehicle control group
T2 construct: purchased Nanjing GenScript Biotechnology Co., Ltd. C134WHE160-2/P5HF001
T2 sequence (Q13148 whole entry): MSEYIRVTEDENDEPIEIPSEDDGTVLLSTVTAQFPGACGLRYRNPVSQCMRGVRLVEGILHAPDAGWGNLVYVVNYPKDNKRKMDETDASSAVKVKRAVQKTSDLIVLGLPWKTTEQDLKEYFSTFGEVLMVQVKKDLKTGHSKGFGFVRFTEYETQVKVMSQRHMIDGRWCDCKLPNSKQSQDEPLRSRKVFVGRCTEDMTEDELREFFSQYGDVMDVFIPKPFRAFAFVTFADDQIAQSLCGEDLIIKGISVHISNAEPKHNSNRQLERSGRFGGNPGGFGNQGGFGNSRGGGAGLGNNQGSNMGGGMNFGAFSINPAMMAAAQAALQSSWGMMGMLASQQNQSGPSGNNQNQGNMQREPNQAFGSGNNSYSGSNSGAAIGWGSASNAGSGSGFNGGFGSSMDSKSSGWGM
Method: Four B6.Cg-Tg (SOD1-G93A) 1Gur/J transgenic male mice (referred to as SOD1-G93A transgenic mice) were sacrificed, and the whole brain was taken out to weigh. 1×PBS was added at 150 mg tissue/mL PBS (Thermo Fisher, pH 7.4; 10010-031) to homogenize at 4° C. (1 min, 3-4 times). After homogenization, the supernatant, i.e., the brain homogenate was taken out to place in a new EP tube.
Eppendorf (EP) tubes were set as: (1) blank group, (2) blank control group, (3) vehicle control group, and (4) plasminogen group, with 5 parallels in each group. The blank group was added with 21.5 μL of normal saline, 4.6 μL of vehicle solution (10 mM sodium citrate, 2% arginine hydrochloride, 3% mannitol, pH 7.4), and 23.9 μL of mouse brain homogenate; the blank control group was added with 21.5 μL of normal saline, 2.3 μL of plasminogen solution (2 mg/mL), and 23.9 μL of mouse brain homogenate; the vehicle control group was added with 20.5 μL of TDP-43 (Nanjing GenScript Biotechnology Co., Ltd., custom-expressed human TDP-43, C134WHE160-2/P5HF001, 1.05 mg/mL), 4.6 μL of vehicle solution, and 23.9 μL of mouse brain homogenate; the plasminogen group was added with 20.5 μL of TDP-43 (1.05 mg/mL), 2.3 μL of plasminogen solution (2 mg/mL), and 23.9 μL of mouse brain homogenate. After adding the samples of each group, they were incubated at 37° C. for 3 h, and then 50 μL of 0.1% trifluoroacetic acid solution was added to terminate the reaction.
A 12% gel was prepared according to the SDS-PAGE gel preparation instructions. Each group of samples was mixed with 4× loading buffer (TaKaRa, e2139) at a volume ratio of 3:1, heating at 100° C. for 5 min, cooling and centrifuging for 2 min, and then 20 μL was taken for sample loading. […] After washing 4 times with TBST, the PVDF membrane was placed on a clean imaging plate, Immobilon Western HRP Substrate (MILLIPORE, WBKLS0100) was added for color development, and the membrane was photographed under a biomolecular imager, then performing quantitative analysis by using Image J.

TDP-43 [3] = target: T1, TDP-43; assay: TDP-43 in brain tissue of okadaic acid-induced dementia model (FAD) mice (Western blot); type: in vivo; set-up: from tissue; host or cells: mouse spinal cord, gluteal muscle, brain, kidney cell nuclei; details: okadaic acid in basolateral amygdala, 50 mg/kg tail vein single dose, 6 hours, vs vehicle group
Method: Ten B6SJL-Tg (APPSwFlLon, PSEN1*M146L*L286V) 6799Vas/Mmjax (hereinafter referred to as FAD) female mice aged 30-32 weeks (purchased from Jackson lab, stock number: 034840) were taken to weigh before modeling as the model group, and five C57 female mice aged 6-7 weeks were selected as the blank group. After grouping, mice in the blank group and model group were anesthetized by intraperitoneal injection of tribromoethanol at a dose of 20 mL/kg. Model mice were located in the basolateral amygdala according to the mouse stereotaxic atlas (according to the coordinates of the bregma: AP-1.94 mm, ML+3.15 mm, DV-4.5 mm), and each mouse was slowly microinjected bilaterally. Mice in the blank group were only drilled at the coordinate location point without injection. The mice in the model group were injected with 50 ng/μL okadaic acid (manufacturer: Shanghai Yuanye Biotechnology Co., Ltd., catalog number S30686-25 ug:) solution, the injection rate was 0.5 μL/min, the injection volume was 2 μL, and after the injection, the syringe stayed for 6 minutes and then slowly withdrew. […] The mice were killed 6 hours after the single administration and the brain tissues were obtained. After homogenization, TDP-43 was detected by western blot.

TDP-43 [4] = target: T1, TDP-43; assay: TDP-43 in spinal cord tissue of SOD1-G93A mice after plasminogen (Western blot); type: in vivo; set-up: from tissue; host or cells: mouse spinal cord, gluteal muscle, brain, kidney cell nuclei; details: 50 mg/kg tail vein, 24 hours after administration, vs vehicle group, P<0.05
Method: Six SOD1-G93A mice aged 10-15 weeks were randomly divided into two groups: 3 mice in vehicle control group, and 3 mice in plasminogen group. The vehicle control group mice were injected with the vehicle at 5 ml/kg by tail vein, and the plasminogen group mice were injected with plasminogen (10 mg/ml) at 50 mg/kg body weight by tail vein. The mice were killed 24 hours after administration, and the spinal cords were obtained. After homogenization, TDP-43 was detected by western blot.

B1: plasminogen: human plasminogen purified from human donor plasma, in which human Lys-plasminogen and Glu-plasminogen are >98% (protein)
chain: KVYLSECKTGNGKNYRGTMSKTKNGITCQKWSSTSPHRPRFSPATHPSEGLEENYCRNPDNDPQGPWCYTTDPEKRYDYCDILECEEECMHCSGENYDGKISKTMSGLECQAWDSQSPHAHGYIPSKFPNKNLKKNYCRNPDRELRPWCFTTDPNKRWELCDIPRCTTPPPSSGPTYQCLKGTGENYRGNVAVTVSGHTCQHWSAQTPHTHNRTPENFPCKNLDENYCRNPDGKRAPWCHTTNSQVRWEYCKIPSCDSSPVSTEQLAPTAPPELTPVVQDCYHGDGQSYRGTSSTTTTGKKCQSWSSMTPHRHQKTPENYPNAGLTMNYCRNPDADKGPWCFTTDPSVRWEYCNLKKCSGTEASVVAPPPVVLLPDVETPSEEDCMFGNGKGYRGKRATTVTGTPCQDWAAQEPHRHSIFTPETNPRAGLEKNYCRNPDGDVGGPWCYTTNPRKLYDYCDVPQCAAPSFDCGKPQVEPKKCPGRVVGGCVAHPHSWPWQVSLRTRFGMHFCGGTLISPEWVLTAAHCLEKSPRPSSYKVILGAHQEVNLEPHVQEIEVSRLFLEPTRKDIALLKLSSPAVITDKVIPACLPSPNYVVADRTECFITGWGETQGTFGAGLLKEAQLPVIENKVCNRYEFLNGRVQSTELCAGHLAGGTDSCQGDSGGPLVCFEKDKYILQGVTSWGLGCARPNKPGVYVRVSRFVTWIEGVMRNN
significantly lower: level of TDP-43 in renal cell nuclei (TDP-43 [1]) | amount of TDP-43 monomer (TDP-43 [2]) | amount of high molecular weight TDP-43 protein (HMW) (TDP-43 [2]) | amount of low molecular weight TDP-43 fragment (LMW) (TDP-43 [2]) | level of TDP-43 monomer in brain tissue (TDP-43 [3]) | level of low molecular weight TDP-43 in brain tissue (TDP-43 [3]) | amount of TDP-43 monomer in spinal cord tissue (TDP-43 [4])
